Among the data in patent publication US20060051395A1 (AFFINERGY, published 2006) are Kd values, retold here.

This experiment addresses T1, Bone Morphogenic Protein 2 (BMP-2) (UniProt P12643 283-396).
T1 construct: Bought from Medtronic; In the phage ELISAs it was biotinylated with NHS-biotin (about one biotin per molecule) and held on streptavidin plates; In the peptide assays it was unlabelled
The experiment in a line: estimated affinity from solution-phase binding of biotinylated peptide and BMP-2, capture on streptavidin plate, anti-BMP antibody detection.

Ends that are not written are not given here.

T1 sequence (P12643 283-396 limits assumed): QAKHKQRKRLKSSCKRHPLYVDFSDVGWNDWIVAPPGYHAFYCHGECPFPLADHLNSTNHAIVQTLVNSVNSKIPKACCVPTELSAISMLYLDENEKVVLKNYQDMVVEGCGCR

B1: AFF-2009 (peptide)
peptide: SSFEPLRFPLKGVPVSR
modifications: not fully specified (residues 1, 2, 16, 17, C-terminus); also: C-terminal Lys(ε-biotin), linker before it not given here
notes: Synthetic form of the peptide of clone AP02-60; not shown: C-terminal biotinylated lysine; any linker before it is not spelled out for this peptide
With B1, the dissociation constant (Kd) (commonly the constant that tells how readily two partners part at equilibrium) is 10 nM.

B2: AFF-2012 (peptide)
peptide: SSSVDLYFPLKGDVVSR
modifications: not fully specified (residues 1, 2, 16, 17, C-terminus); also: C-terminal Lys(ε-biotin), linker before it not given here
notes: Synthetic form of the peptide of clone AP02-59; not shown: C-terminal biotinylated lysine; any linker before it is not spelled out for this peptide
As for B2, the dissociation constant (Kd) is 9 nM.
